Consider 2 molecules from article PMC13438699 (Nature Communications, 2026).

The target of this assay is H1 stem (#4900), HA stem construct derived from the A/Brisbane/59/2007 (H1N1) HA (Designed HA stem #4900 from influenza A …, stabilised). The assay is described as follows: BLI. The conditions noted are these: both partners purified.

By Kd is commonly meant the free concentration of one partner at which half of the binding sites on the other are occupied at equilibrium, for simple one-to-one binding. Read a low Kd as tighter binding.

B1: HB31 wild type (WT) Fab (Fab, V domains shown)
VH: EVQLLESGGGLVQPGGSLRLSCTVSGFTSSNYDMSWVRQAPGKGLEWVSGISGTGRDTYYADSVKGRFTISRDNSKNTLSLQMNSLRADDTAVYFCARDRPVLRYFDWQPYGLDVWGKGTTVTVSS
VL: QSALTQPPSASGSPGQSVTISCTGTSSDVGGYNYVSWYQQYPSKAPKLMIYEVSKRPSGVPDRFSGSKSGNTASLTVSGLQAEDEADYYCNSYAGSNLYVFGTGTKVTVL
notes: also called HB31 WT Fab; HB31 Fab; source: Expi293F, transiently co-transfected, purified (CaptureSelect CH1-XL)
Regarding B1, the affinity, expressed as Kd, was 4.3 nM.

B2: HB31 wild type (WT) IgG (antibody, V domains shown)
VH: EVQLLESGGGLVQPGGSLRLSCTVSGFTSSNYDMSWVRQAPGKGLEWVSGISGTGRDTYYADSVKGRFTISRDNSKNTLSLQMNSLRADDTAVYFCARDRPVLRYFDWQPYGLDVWGKGTTVTVSS
VL: QSALTQPPSASGSPGQSVTISCTGTSSDVGGYNYVSWYQQYPSKAPKLMIYEVSKRPSGVPDRFSGSKSGNTASLTVSGLQAEDEADYYCNSYAGSNLYVFGTGTKVTVL
notes: copies: 2 + 2
Consider B2, for which the Kd amounted to 2.7 nM.
